In the supplement of paper PMC12764529:

Assay: folding stability dG unfold (combined trypsin and chymotrypsin); higher = more stable
Method: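 Folding stability of de novo designed mini-proteins (<80 aa, no Cys; designed by TrROS, TrMRF, ProteinMPNN and the joint model) was measured by cDNA display proteolysis with trypsin and chymotrypsin. Each protease was used at 11 concentrations in a threefold dilution series plus a no-protease condition. K50 was inferred by Bayesian fitting of sequencing counts, and dG unfold was derived against a sequence-predicted unfolded-state K50 (Tsuboyama et al. method). Sequences shown include variable-length N-terminal GS-type padding (SAGGSAGG...) inside a display construct carrying a PA tag. Rows were kept only if the AF2 dimer inter-PAE was >15, to exclude likely homo-oligomers.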

| Sequence | folding stability dG unfold |
| --- | --- |
| SAGGSAGGMEAVLEALKELPPDEEKVITVPHPDDPRYVVRFTLRRKGDEIEIPVEKKPIPPGLASAGGSAGG [r6_392_TrMRF] | < -4.18 kJ/mol |
| SAGGSAGGMEKADKLAAALVEKGIPFHVKKVEVFEVRIPPADKELGEVVLPAVKIGLDDKVLLASAGGSAGG [r6_686_TrMRF] | < -4.18 kJ/mol |
| SAGGSAGGMKTEVVEETVPLRNEDGKLLPSDALLETELPDKKVLTLVERDPNSDTVKTTRVILESAGGSAGG [r6_659_JUSTAS] | < -4.18 kJ/mol |
| SAGGSAGGMSLIVKSEEEAREILKKLGWKVKKLNITKLKDESGTVKIPVEIEPVPKGKLSEELISAGGSAGG [r6_981_JUSTAS] | < -4.18 kJ/mol |
| SAGGSAGGNWETIPIKGDPKQMVDEAREENPRNVRIYNPNNGKKHEFPPGLPLDDFPGMYVQRRSAGGSAGG [r6_858_TrROS] | < -4.18 kJ/mol |
| SAGGSAGGPKPEIDIEPYPEEGQMYVKIRLPGNGRPITIPVEGPMTPNDPEKAIEEAKDALEKFSAGGSAGG [r6_331_TrROS] | < -4.18 kJ/mol |
| SAGGSAGGRIRVPDGREIPPGQSKEEAKDQVKDWFKERNPQNGNKKVKIEAEKWDGMPWIRVKPSAGGSAGG [r6_558_TrROS] | < -4.18 kJ/mol |
| SAGGSAGGSAADLAKLEKVEVEEVPTDPNAEYRVTAELPTPGEPVEFTRRRLPDGSWEYSGSAGGSAGGSAG [r3_234_JUSTAS] | < -4.18 kJ/mol |
| SAGGSAGGSAEEILELFPDLELLEVDPVEPRALVRRSDDSWLRVNLATGEAEEVGPGEAERESAGGSAGGSA [r18_381_TrMRF] | < -4.18 kJ/mol |
| SAGGSAGGSAGAAEFELSGTVRIGDVPVKVTPRLYVPEDGGYRAEPRVELYFREDTPGYRSAGGSAGGSAGG [r11_121_TrMRF] | < -4.18 kJ/mol |
| SAGGSAGGSAGAPRVRSVTPVGEETFFLPEDRVVRVTLWAAEGEGPPRLFRRVEVLPLDESAGGSAGGSAGG [r11_129_TrMRF] | < -4.18 kJ/mol |
| SAGGSAGGSAGEKPIYYRIKHRNPANGQKVKHEIPFPPNDADEIKEQMEKQPGIDEIEPFSAGGSAGGSAGG [r17_438_TrROS] | < -4.18 kJ/mol |
| SAGGSAGGSAGGAKELADRMRDAGYEPEADPDSGKIEVRHPNPNGKRMKREINIPPEDISAGGSAGGSAGGS [r10_1173_TrROS] | < -4.18 kJ/mol |
| SAGGSAGGSAGGDADKALPVGFELVEAETVELGDNPVLLVRLKGKNGEQLLLVPPDAPISAGGSAGGSAGGS [r10_968_TrMRF] | < -4.18 kJ/mol |
| SAGGSAGGSAGGDKKAIEELVKKLPPDTKLAPVKLPDGKEKLIFVERREDGSRKALVLDSAGGSAGGSAGGS [r10_1017_TrMRF] | < -4.18 kJ/mol |
| SAGGSAGGSAGGDNIKIDIDFDPGYGVFTSKIYPPNGGPISDLSIKIPPMSPEDLDKFKSAGGSAGGSAGGS [r10_717_TrROS] | < -4.18 kJ/mol |
| SAGGSAGGSAGGDPNIEKTYKIKVAKGDKNGKIIKVIEKEIKVKTPEEAEKFAKELAKSSAGGSAGGSAGGS [r10_57_TrMRF] | < -4.18 kJ/mol |
| SAGGSAGGSAGGEEERMWMFSVRVPDKPVMFPFDDLEKLAEEKGVPVKIEWARMPADDLKSAGGSAGGSAGG [r7_185_TrROS] | < -4.18 kJ/mol |
| SAGGSAGGSAGGFPNMPIKEIKIDNPERVPGKPRVRIEFTFPGGPRKFMMPADDLQDMFSAGGSAGGSAGGS [r10_771_TrROS] | < -4.18 kJ/mol |
| SAGGSAGGSAGGGMKKITISDPVKPGAVITFPLTGETITVPANSSVTITLTEPLPGTYDLSAGGSAGGSAGG [r7_234_JUSTAS] | < -4.18 kJ/mol |
| SAGGSAGGSAGGGSPAEQLREMAKQIPPVEIRFPGPGKERTIPDPDNFQEKGWKITEIEFSAGGSAGGSAGG [r7_504_TrROS] | < -4.18 kJ/mol |

| Sequence | folding stability dG unfold |
| --- | --- |
| SAGGSAGGSAGGGSPNVVVEKKLTVNLPKDVKLDFPPEYEVTVTKGKNTYKITEKIIVNKSAGGSAGGSAGG [r7_584_JUSTAS] | < -4.18 kJ/mol |
| SAGGSAGGSAGGIEVDPDYAMITFPIPPNETIKFKLPNEKLKIEVPPGKPISIYIPAKDSAGGSAGGSAGGS [r10_464_TrROS] | < -4.18 kJ/mol |
| SAGGSAGGSAGGIRLSPEFRELLKDAPPSPGQKREINFPNGYQITYTVKGNKIDDIEWTPSAGGSAGGSAGG [r7_611_TrROS] | < -4.18 kJ/mol |
| SAGGSAGGSAGGKIKLAAANPKVAKELAKILEKELEEKGYKLKPNLKIEVLPAKPDPKLASAGGSAGGSAGG [r7_965_TrMRF] | < -4.18 kJ/mol |
| SAGGSAGGSAGGKKKKIKLFIDHYFDGPPNINPEKIEKELKEKGIDVEVVLNALPKENKKSAGGSAGGSAGG [r7_355_TrMRF] | < -4.18 kJ/mol |
| SAGGSAGGSAGGKSPLEKLRELAKKNPNVTVYVEKTGKEVKVPSIEELLEKGYKIVKIEKSAGGSAGGSAGG [r7_504_TrROS_Hall] | < -4.18 kJ/mol |
| SAGGSAGGSAGGKVIHIPAGDAKTFIKEALEKDKDQPIVIHMYNPDGKEYSTMEVKIKPSAGGSAGGSAGGS [r10_741_TrROS] | < -4.18 kJ/mol |
| SAGGSAGGSAGGMALEPKTVTSTLTVFFPDTGKTYPLTETVFIPTKFNLPLPPFPPETLSAGGSAGGSAGGS [r10_1026_JUSTAS] | < -4.18 kJ/mol |
| SAGGSAGGSAGGMEVREVVEETPETLVVRTVRFYPDGSVEVLEEERIPLPPPELTPRNLLSAGGSAGGSAGG [r11_843_JUSTAS] | < -4.18 kJ/mol |
| SAGGSAGGSAGGMIHIDPTPNGWKASVMNPNNGKPREIPFPPDNIPKLIPKGIDYVHIHPSAGGSAGGSAGG [r7_266_TrROS] | < -4.18 kJ/mol |
| SAGGSAGGSAGGMIYPPDEVLEKTTKVEVELPNETGKTITKTIVTKTYAESGKSTIETAGSAGGSAGGSAGG [r17_266_JUSTAS] | < -4.18 kJ/mol |
| SAGGSAGGSAGGMKITVKTSYDPSRPVFYEEVYPPGGEPISRKVIEIPPAEPKLIEELLSAGGSAGGSAGGS [r10_717_JUSTAS] | < -4.18 kJ/mol |
| SAGGSAGGSAGGMKPYRIGNGAWLYVNPDDSVRIYNPGNGQKRTIPIGKPQPIRLPKNAISAGGSAGGSAGG [r7_299_TrROS] | < -4.18 kJ/mol |
| SAGGSAGGSAGGMKVETRTITDPGGIEKVKEDYPGYTVEKTEKLPDGSTKVTLKYPILKSAGGSAGGSAGGS [r10_764_JUSTAS] | < -4.18 kJ/mol |
| SAGGSAGGSAGGMLPIPKIEVKPGDEEEAKKTKEKLKKELEEKLGKKAKNLKVDFNPSLSAGGSAGGSAGGS [r10_1216_JUSTAS] | < -4.18 kJ/mol |
| SAGGSAGGSAGGMTAVVTEPRLENGKEYLVRTVREFPSAEPRPGAVLEEEVVPLDVPLESAGGSAGGSAGGS [r10_730_JUSTAS] | < -4.18 kJ/mol |
| SAGGSAGGSAGGMTETIPVSPSELDEVIEEAKKKGLKKIVLKDPNSSKKTVITKDKVEDESAGGSAGGSAGG [r7_564_JUSTAS] | < -4.18 kJ/mol |
| SAGGSAGGSAGGMTTTVIEVDVEPGEVSEEEIKKRLAPLTGKPIEITTDPSGIPVITVEESAGGSAGGSAGG [r7_330_JUSTAS] | < -4.18 kJ/mol |
| SAGGSAGGSAGGMVLELEGLGEEEIKALVREIPEDEPVTFVIKSKNNKTSVIPSEEILESAGGSAGGSAGGS [r10_732_JUSTAS] | < -4.18 kJ/mol |
| SAGGSAGGSAGGNPGQEVTYQIKIPIRDKNGEPDWKIDIPVTMDTPQDADRFAKEIAKRSAGGSAGGSAGGS [r10_57_TrROS] | < -4.18 kJ/mol |
